Laboratory results: patent US20250042943A1, “FAP DETECTION” (THE UNIVERSITY COURT OF THE UNIVERSITY OF EDINBURGH, priority 2021, published 2025)
“Also recorded” adds a separate entry of the source. Where a SMILES comes first, the peptide text is derived from it. [ ]: non-standard residue; d: D form. The star is where a group is joined. 5FAM = O=C1OC2(c3ccc(O)cc3Oc3cc(O)ccc32)c2ccc(C(=O)*)cc21; X1 = CN(C)c1ccc(N=Nc2ccccc2C(=O)*)cc1; AEEA = NCCOCCOCC(=O)O

Tests used:
[1] = biological target: T1, rhFAP (Homo sapiens, UniProt Q12884); test: Probe cleavage by recombinant human FAP (fluorescence read); assay type: biochemical; conditions: for signal (relative fluorescence intensity) with rhFAP: comparison between probe iterations; for FAP specificity (over PREP): from recombinant enzyme assessment; for cleavage by rhFAP: probe 5 μM, enzyme 0.1 μg/ml, read 480/530 nm
T1 sequence (Q12884 1-760): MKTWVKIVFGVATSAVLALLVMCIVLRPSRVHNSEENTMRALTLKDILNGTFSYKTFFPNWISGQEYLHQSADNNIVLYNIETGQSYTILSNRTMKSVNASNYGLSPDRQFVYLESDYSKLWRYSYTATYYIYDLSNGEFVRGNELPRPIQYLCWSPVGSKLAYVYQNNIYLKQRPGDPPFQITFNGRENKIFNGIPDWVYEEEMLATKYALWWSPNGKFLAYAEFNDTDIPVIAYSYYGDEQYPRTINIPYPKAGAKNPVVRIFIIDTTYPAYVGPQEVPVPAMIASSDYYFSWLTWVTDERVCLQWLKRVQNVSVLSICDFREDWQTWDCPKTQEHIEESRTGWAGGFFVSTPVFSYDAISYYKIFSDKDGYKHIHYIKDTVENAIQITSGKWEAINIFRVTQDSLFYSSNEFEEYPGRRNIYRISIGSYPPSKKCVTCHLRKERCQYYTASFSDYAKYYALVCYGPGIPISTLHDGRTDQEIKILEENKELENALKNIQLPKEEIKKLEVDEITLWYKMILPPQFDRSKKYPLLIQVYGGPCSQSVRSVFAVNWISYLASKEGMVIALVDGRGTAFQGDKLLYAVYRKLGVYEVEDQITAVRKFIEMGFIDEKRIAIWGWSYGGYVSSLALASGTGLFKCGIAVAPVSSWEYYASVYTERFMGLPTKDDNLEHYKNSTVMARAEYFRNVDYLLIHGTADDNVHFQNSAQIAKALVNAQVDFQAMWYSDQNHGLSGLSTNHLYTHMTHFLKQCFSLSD

[2] = biological target: T2, rhPREP (Homo sapiens, UniProt P48147); test: Probe cleavage by recombinant human PREP; assay type: biochemical; conditions: probe 5 μM, enzyme 0.1 μg/ml, read 480/530 nm
T2 sequence (P48147 1-710): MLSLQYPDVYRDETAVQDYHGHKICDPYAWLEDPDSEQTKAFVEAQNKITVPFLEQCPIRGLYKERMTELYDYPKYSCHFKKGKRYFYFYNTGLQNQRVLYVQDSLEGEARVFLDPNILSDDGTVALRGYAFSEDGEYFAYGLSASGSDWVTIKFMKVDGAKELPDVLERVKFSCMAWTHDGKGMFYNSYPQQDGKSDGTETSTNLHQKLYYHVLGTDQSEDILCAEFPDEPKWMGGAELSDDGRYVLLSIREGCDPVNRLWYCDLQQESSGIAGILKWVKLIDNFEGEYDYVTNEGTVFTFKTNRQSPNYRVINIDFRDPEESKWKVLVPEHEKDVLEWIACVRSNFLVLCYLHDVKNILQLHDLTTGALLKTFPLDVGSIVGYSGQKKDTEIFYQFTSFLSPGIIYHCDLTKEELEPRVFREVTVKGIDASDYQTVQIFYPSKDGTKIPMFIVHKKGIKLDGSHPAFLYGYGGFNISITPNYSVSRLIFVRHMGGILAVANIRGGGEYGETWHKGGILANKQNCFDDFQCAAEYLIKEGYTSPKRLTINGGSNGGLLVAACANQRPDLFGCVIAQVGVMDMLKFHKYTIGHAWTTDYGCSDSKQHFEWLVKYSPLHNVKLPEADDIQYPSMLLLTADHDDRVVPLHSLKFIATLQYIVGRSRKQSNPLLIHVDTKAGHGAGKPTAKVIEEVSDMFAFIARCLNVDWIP

[3] = test system: FAP3
[4] = test system: NSCLC patient tissue samples; test: Fluorescence intensity and lifetime imaging (FLIM, KronoScan) of ex vivo NSCLC tissue; assay type: cell-based, human; conditions: VBP (1:1000) added with FAP3; listed as VBP
Method: For imaging solutions, varying concentrations of rhFAP were prepared in blackened eppendorfs and FAP3 to a final concentration of 5 μm added and imaged as below. For biological specimens, NSCLC patient tissue samples from surgical resection were used fresh or snap frozen and stored at −80 until required. Small fragments (approx. 4 mm^3) incubated at 37° C. in a 96 well plate in phenyl-red free DMEM (Gibco) containing 10% FCS, 1% Penicillin-streptomycin and 1% L-Glutamine. For the inhibitor fragments VBP (1:1000) was added. Samples were then imaged using a clinically tractable novel fluorescence lifetime imaging system, KronoScan, with an imaging fibre providing a 400×400 um field of view. […] This spectrometer contains a 512 channel single photon avalanche diode (SPAD) sensor, allowing for the rapid collection of time resolved spectral fluorescence lifetime data. Fluorescence intensity and lifetime images were collected at 160×160 pixels over a 498-570 nm spectral range with an exposure time of 13 μs per pixel. […]
For each condition the tumour samples were imaged using a fibre placed at the tip of the tissue (baseline), and then again at 10 minute intervals following the additions of equimolar concentrations of probe+/− Inhibitor. […] Each condition and time-point data for both fluorescence intensity and lifetime were collected. […]

[5] = test system: cancer associated fibroblasts (CAFs) from NSCLC patient samples; test: Assessment on cancer associated fibroblasts (CAFs); assay type: cell-based, human; conditions: co-incubated with FAP3
Method: CAFs were isolated from NSCLC patient samples as previously described methods known in the art. Briefly, tissue samples were minced with forceps and incubated for an hour in prewarmed RPMI media (Gibco) containing collagenase IV [2 mg/ml](Sigma) and DNase [0.2 mg/ml](Sigma). Samples were spun at 350 g for 5 minutes and red blood cells were lysed from samples using RBC lysis buffer (BioLegend) in 10 mls for 10 minutes. Following a further spin at 350 g for 5 minutes, cells were seeded in culture flasks in DMEM containing 10% FCS, 1% Penicillin-Streptomycin, 1% L-Glutamine and 10% Insulin Transferrin Selenium (ITS). 24 hours after seeding, non-adherent cells were washed from the flasks. Cells were maintained by standard cell culture methods and by passage 2, the predominant cell type was CAFs, assessed by flow cytometry markers and morphology. CAFs between passage 4-9 were used to assess FAP probes and confirmed to be FAP^hi by flow cytometry.
CAFs were seeded into 96 well plates in a 100 μl media (complete DMEM as described above) at a density of 1×10^5 cells/ml to form a confluent monolayer within 24 hours. Wells containing cells had media removed and then were washed before buffer (DPBS)+/− inhibitors were added with the imaging probes. Immediately after adding imaging probes, the plate was transferred to the prewarmed spectrophotometer as above and read at 480/530 nm for one hour.

[6] = biological target: rhDPPIV (Homo sapiens, UniProt P27487); test: Probe cleavage by recombinant human DPPIV (exopeptidase activity); assay type: biochemical; conditions: probe 5 μM, enzyme 0.1 μg/ml, read 480/530 nm
rhDPPIV, sequence (P27487 whole entry): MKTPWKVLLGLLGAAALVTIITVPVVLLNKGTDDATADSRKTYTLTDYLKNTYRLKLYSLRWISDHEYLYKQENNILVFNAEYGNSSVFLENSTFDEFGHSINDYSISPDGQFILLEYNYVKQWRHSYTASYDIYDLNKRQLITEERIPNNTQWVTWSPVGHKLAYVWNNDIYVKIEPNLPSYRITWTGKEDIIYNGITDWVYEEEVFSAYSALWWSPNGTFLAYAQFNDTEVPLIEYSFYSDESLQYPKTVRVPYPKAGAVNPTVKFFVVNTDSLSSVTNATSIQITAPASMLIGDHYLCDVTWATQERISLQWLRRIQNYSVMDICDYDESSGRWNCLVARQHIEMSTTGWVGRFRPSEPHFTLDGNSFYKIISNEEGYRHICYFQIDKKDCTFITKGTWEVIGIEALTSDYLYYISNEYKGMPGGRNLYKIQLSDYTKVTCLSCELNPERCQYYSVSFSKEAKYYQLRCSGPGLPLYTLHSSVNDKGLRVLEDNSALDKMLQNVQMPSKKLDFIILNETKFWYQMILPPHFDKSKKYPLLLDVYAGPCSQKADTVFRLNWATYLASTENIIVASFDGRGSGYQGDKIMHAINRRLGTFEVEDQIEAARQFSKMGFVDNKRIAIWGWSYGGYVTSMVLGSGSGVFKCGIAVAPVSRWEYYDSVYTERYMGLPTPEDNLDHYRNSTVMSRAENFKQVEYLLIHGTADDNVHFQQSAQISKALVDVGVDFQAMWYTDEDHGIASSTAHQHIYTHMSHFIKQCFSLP

[7] = Toxicity in rats, intravenous (bolus) dosing for 7 days; assay type: in vivo; conditions: intravenous (bolus) injection of 0.1 mg for 7 days
Method: The potential toxicity of the FAP probe was assessed by dosing rats with an intravenous (bolus) injection of 0.1 mg of the FAP3 probe for 7 days.

In the case of “Lys(MethylRed)-(β)Ala-Pro-Ser-Lys(5-FAM)-[Peg2-(D)Lys]3-NH2 [FAP2Fβ-Ala]”, the “signal (relative fluorescence intensity) with rhFAP” value [1] is reported as “reduced signal” and the “FAP specificity (over PREP)” value [1] is reported as “FAP specificity over PREP”.

In the case of “Lys(MethylRed)-Ala-Pro-Ser-Lys(5-FAM)-[Peg2-(D)Lys]3-NH2 [FAP2AAla]”, the “cleavage by rhPREP” value [2] is reported as “is cleaved; also recorded: demonstrated cleavage by PREP” and the “cleavage by rhFAP” value [1] is reported as “FAP activity was absent”.

In the case of “FAP on cancer associated fibroblasts (CAFs) from NSCLC patient samples”, the “cleavage of FRET probe on a CAF monolayer (fluorescence 480/530 nm, one hour)” value [3] is reported as “FAP3 was cleaved by FAP^+CAFs, with inhibition of signal when co-incubated with Val-boroPro”.

In the case of “Lys(MethylRed)-(D)Ser-Pro-Ser-Lys(5-FAM)-[Peg2-(D)Lys]3-NH2 [FAP2CD-Ser]”, the “cleavage by rhPREP” value [2] is reported as “without PREP cleavage”, the “signal (relative fluorescence intensity) with rhFAP” value ([1]; listed as D-Ser) is reported as “reduced signal” and the “FAP specificity (over PREP)” value [1] is reported as “demonstrates FAP specificity”. The “FAP specificity (over PREP)” value ([1]; listed as D-Ser) was “FAP specificity over PREP” and the “cleavage by rhFAP” value [1] was “highest rate of cleavage”.

With `CC(C)[C@H](N)C(=O)N1CCC[C@H]1B(O)O` [Val-boroPro] the “inhibition of FAP3 intensity and lifetime change in NSCLC tissue” value [4] was “inhibition; also recorded: abrogated”, the “inhibition of FAP3 signal in CAFs” value [5] was “inhibition of signal” and the “inhibition of FAP3 signal in CAFs” value ([5]; listed as VBP) was “signal was abrogated”.

For “FAM-Peg2-Gly-Pro-Gly-(D)Pro-(D)Asn-Gln-Lys(MethylRed)-NH2 [FAP1DLi-FAM]”, the “cleavage by rhPREP” value [2] was “cleaves; also recorded: partial reduction in activity”, the “cleavage by rhPREP” value ([2]; listed as FAP1 DLi-FAM) was “still demonstrated PREP cleavage” and the “cleavage by rhDPPIV (exopeptidase activity)” value [6] was “Neither FAP1Li-FAM or FAP1 DLi-FAM are cleaved”. The “cleavage by rhFAP” value [1] was “lower rate of cleavage; also recorded: FAP activity was significantly reduced”.

With “FAM-Peg2-Gly-Pro-Gly-Pro-Asn-Gln-Lys(MethylRed)-NH2 [FAP1Li-FAM]” the “cleavage by rhPREP” value [2] was “cleaved more rapidly; also recorded: endopeptidase activity”, the “cleavage by rhDPPIV (exopeptidase activity)” value [6] was “Neither FAP1Li-FAM or FAP1 DLi-FAM are cleaved; also recorded: did not cleave” and the “signal (relative fluorescence intensity) with rhFAP” value [1] was “signal intensity of FAP1 is higher”. For the same compound, the “cleavage by rhFAP” value [1] was “cleaved rapidly; also recorded: endopeptidase activity”.

With `CC(C)[C@H](NC(=O)[C@@H](N)CCCCNC(=O)c1ccccc1N=Nc1ccc(N(C)C)cc1)C(=O)N[C@H](CO)C(=O)N1CCC[C@H]1C(=O)N[C@@H](CC(N)=O)C(=O)N[C@@H](CCC(N)=O)C(=O)NCC(=O)N[C@@H](CCCCNC(=O)c1ccc2c(c1)C(=O)OC21c2ccc(O)cc2Oc2cc(O)ccc21)C(=O)NCCOCCOCC(=O)N[C@H](CCCCN)C(=O)NCCOCCOCC(=O)N[C@H](CCCCN)C(=O)NCCOCCOCC(=O)N[C@H](CCCCN)C(N)=O` [FAP3, Lys(MethylRed)-Val-(D)Ser-Pro-Asn-Gln-Gly-Lys(5-FAM)-[Peg2-(D)Lys]3-NH2] (H-K(X1)V[dS]PNQGK(5FAM)[AEEA][dK][AEEA][dK][AEEA][dK]-NH2) the clinical signs [7] was “no clinical signs”, the deaths [7] was “no deaths” and the “differences in body weights, body weight gains, food consumption, haematology, coagulation, clinical chemistry, organ weights and macroscopic and microscopic examinations” value ([7]; compared to a control group) was “no differences”.

In the case of “Lys(MethylRed)-D-Tyr-Pro-Ser-Lys(5-FAM)-[Peg2-(D)Lys]3-NH2 [FAP2ED-Tyr]”, the “cleavage by rhFAP” value [1] is reported as “loss of FAP activity”.

In the case of “Lys(MethylRed)-(D)Ala-Pro-Ser-Lys(5-FAM)-[Peg2-(D)Lys]3-NH2 [FAP2BD-Ala]”, the “signal (relative fluorescence intensity) with rhFAP” value [1] is reported as “reduced signal” and the “FAP specificity (over PREP)” value [1] is reported as “FAP specificity over PREP”.

For “Lys(MethylRed)-(D)Thr-Pro-Ser-Lys(5-FAM)-[Peg2-(D)Lys]3-NH2 [FAP2DD-Thr]”, the “signal (relative fluorescence intensity) with rhFAP” value [1] was “reduced signal” and the “FAP specificity (over PREP)” value [1] was “FAP specificity over PREP”.

In the case of MMP-13 (recombinant enzyme), the “cleavage of FRET probe by recombinant enzyme (fluorescence)” value [3] is reported as “demonstrating no activity”.
